8 substances from ChEMBL document CHEMBL1155806, “Inorganic polyhedral metallacarborane inhibitors of HIV protease: a new approach to overcoming antiviral resistance” (J Med Chem, 2008) can be followed below.

The subject of data set [1] is Cc1c(O)cccc1C(=O)N[C@@H](CSc1ccccc1)[C@H](O)CN1C[C@H]2CCCC[C@H]2C[C@H]1C(=O)NC(C)(C)C. Particulars: Human immunodeficiency virus 1.
The test system is the same in data set [2]. The settings on record: Human immunodeficiency virus 1. This is another data set of the same source.
For data set [3] the test system is unchanged. The settings on record: Human immunodeficiency virus 1. This is another data set of the same source.
The test system is the same in data set [4]. The settings on record: Human immunodeficiency virus 1. The source holds these as a separate data set.
The test system is the same in data set [5]. The settings on record: Human immunodeficiency virus 1. This is another data set of the same source.
Data set [6] shares this test system. Particulars: Human immunodeficiency virus 1. This is another data set of the same source.
For data set [7] the test system is unchanged. Particulars: Human immunodeficiency virus 1. This is another data set of the same source.
Data set [8] shares this test system. The settings on record: Human immunodeficiency virus 1; BH10.

“Human immunodeficiency virus type 1 protease (Human immunodeficiency virus 1), Q72874 L10I,I15V,E35D,N37S,R41K,I62V,L63P,A71V,G73S,L90M”: in data set [1], the Km turned out to be 8.3 µM and the catalytic constant (kcat) came out at 12 s⁻¹.
Regarding “Human immunodeficiency virus type 1 protease (Human immunodeficiency virus 1), Q72874 L10I,L24I,L33F,M46L,I54V,L63P,A71V,V82A,I84V”, in data set [2], the Km was determined as 14 µM and the turnover number (kcat) was 6.4 s⁻¹.
“Human immunodeficiency virus type 1 protease (Human immunodeficiency virus 1), Q72874 D30N,N88D”: in data set [3], the Km is 18 µM and the kcat was determined as 24 s⁻¹.
“Human immunodeficiency virus type 1 protease (Human immunodeficiency virus 1), Q72874 M46I,A71V,V82T,I84V”: in data set [4], the Michaelis constant (Km) was found to be 48 µM and the catalytic constant (kcat) came out at 14 s⁻¹.
For the substance “Human immunodeficiency virus type 1 protease (Human immunodeficiency virus 1), Q72874 L10F,L19I,K20R,L33F,E35D,M36I,R41K,F53L,I54V,L63P,H69K,A71V,T74P,I84V,L89M,L90M,I93L”, in data set [5], the Michaelis constant (Km) is 13 µM and the catalytic constant (kcat) was determined as 10 s⁻¹.
Take “Human immunodeficiency virus type 1 protease (Human immunodeficiency virus 1), Q72874 V32I,I47A”: in data set [6], the Km worked out at 35 µM and the catalytic constant (kcat) is 7.5 s⁻¹.
For “Human immunodeficiency virus type 1 protease (Human immunodeficiency virus 1), Q72874 A71V,V82T,I84V”, in data set [7], the Km is 36 µM and the catalytic constant (kcat) is 11 s⁻¹.
As to “Protease (Human immunodeficiency virus 1), Q9YQ12”, in data set [8], the Km was 15 µM and the turnover number (kcat) is 30 s⁻¹.

What is called Km is the substrate concentration at which the rate is half of its maximum. Broadly, the kcat is the maximal rate divided by the concentration of active sites.
